Publication PMC2847587

How the values were obtained:
Assay in all cases: immunodepletion
[1] = biological target: FAAP24 (human (endogenous in HeLa)) (UniProt Q9BTP7)
[2] = biological target: FANCA (human (endogenous in HeLa)) (UniProt O15360)
[3] = biological target: MHF1 (FANCM-associated Histone Fold protein 1) (human (endogenous in HeLa)) (UniProt Q8N2Z9)
[4] = biological target: MHF2 (FANCM-associated Histone Fold protein 2) (human (endogenous in HeLa)) (UniProt A8MT69); conditions: remark: other sources report otherwise
Sequence of MHF2 (FANCM-associated Histone Fold protein 2) (human (endogenous in HeLa)) (A8MT69 whole entry): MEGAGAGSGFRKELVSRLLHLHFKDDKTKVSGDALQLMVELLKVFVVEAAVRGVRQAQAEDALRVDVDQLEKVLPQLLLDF

Sequence of FANCA (human (endogenous in HeLa)) (O15360 whole entry): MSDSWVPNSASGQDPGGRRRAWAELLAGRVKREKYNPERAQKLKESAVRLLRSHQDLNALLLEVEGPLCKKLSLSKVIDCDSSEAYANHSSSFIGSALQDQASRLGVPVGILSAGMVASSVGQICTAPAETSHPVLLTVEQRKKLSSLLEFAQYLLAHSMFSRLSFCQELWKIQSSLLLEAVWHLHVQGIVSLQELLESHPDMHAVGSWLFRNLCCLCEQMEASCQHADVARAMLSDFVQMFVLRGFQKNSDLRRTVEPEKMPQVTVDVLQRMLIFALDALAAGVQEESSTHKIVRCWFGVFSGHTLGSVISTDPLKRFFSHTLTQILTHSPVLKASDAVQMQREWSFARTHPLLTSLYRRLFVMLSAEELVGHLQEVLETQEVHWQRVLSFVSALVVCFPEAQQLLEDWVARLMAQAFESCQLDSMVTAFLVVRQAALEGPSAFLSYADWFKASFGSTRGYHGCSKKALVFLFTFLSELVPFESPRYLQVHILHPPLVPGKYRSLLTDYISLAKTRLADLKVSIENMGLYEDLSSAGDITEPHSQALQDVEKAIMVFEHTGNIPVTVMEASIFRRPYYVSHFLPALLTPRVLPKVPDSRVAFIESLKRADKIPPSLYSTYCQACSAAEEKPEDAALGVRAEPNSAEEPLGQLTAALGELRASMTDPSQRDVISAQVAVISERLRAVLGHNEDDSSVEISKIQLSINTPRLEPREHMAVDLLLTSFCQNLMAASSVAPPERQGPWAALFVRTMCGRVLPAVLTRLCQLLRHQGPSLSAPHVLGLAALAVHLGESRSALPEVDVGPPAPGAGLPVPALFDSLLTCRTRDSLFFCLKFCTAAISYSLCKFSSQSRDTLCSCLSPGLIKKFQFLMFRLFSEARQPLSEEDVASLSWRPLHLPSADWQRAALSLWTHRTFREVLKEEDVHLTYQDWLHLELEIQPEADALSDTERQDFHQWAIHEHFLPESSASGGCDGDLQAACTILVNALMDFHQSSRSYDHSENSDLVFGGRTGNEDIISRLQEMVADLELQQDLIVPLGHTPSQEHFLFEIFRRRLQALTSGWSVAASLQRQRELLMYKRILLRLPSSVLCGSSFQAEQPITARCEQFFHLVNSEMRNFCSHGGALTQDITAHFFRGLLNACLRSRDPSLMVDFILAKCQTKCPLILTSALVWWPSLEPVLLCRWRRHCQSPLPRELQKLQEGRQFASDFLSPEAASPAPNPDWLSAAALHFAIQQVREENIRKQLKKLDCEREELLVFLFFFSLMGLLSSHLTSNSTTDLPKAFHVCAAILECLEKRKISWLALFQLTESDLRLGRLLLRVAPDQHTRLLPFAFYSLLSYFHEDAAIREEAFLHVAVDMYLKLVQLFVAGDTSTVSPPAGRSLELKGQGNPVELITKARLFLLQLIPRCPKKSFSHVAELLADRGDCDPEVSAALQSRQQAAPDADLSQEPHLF
Sequence of FAAP24 (human (endogenous in HeLa)) (Q9BTP7 whole entry): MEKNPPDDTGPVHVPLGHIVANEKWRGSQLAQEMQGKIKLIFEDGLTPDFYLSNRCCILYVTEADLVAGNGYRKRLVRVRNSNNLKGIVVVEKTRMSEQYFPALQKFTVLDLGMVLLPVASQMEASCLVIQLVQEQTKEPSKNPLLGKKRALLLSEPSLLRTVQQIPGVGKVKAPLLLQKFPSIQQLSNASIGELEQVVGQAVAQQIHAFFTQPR
Sequence of MHF1 (FANCM-associated Histone Fold protein 1) (human (endogenous in HeLa)) (Q8N2Z9 whole entry): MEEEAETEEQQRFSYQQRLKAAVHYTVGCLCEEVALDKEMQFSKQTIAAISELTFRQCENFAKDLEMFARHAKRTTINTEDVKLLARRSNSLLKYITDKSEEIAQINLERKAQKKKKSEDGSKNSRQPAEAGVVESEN

percent co-depleted [1]: 70%
percent co-depleted [2]: < 30%
percent co-depleted [3]: 85%
percent co-depleted [4]: 85%
Substance: FANCM, Q8IYD8 1-2048
